Laboratory results published in patent publication US10975360B2, “Process for the modification of alkanes, fatty acids and fatty alcohols” (priority 2016, dated 2021).

Tests used:
[1] = Biotransformation of dodecanoic acid to δ-dodecalactone by CYP505An expressed in Pichia pastoris; assay type: cell-based; settings: 10 mM fatty acid, 12 h, acidified
Procedure: (§1) A transformant of Pichia pastoris KM71 harbouring the gene encoding CYP505An (SEQ ID No 5) was grown and harvested as described above. The harvested cells were resuspended 1 g in 40 ml of MOPS (200 mM, 100 mM glucose, 100 mM glycerol, pH 8) buffer and 12.5 ml was transferred to each of two 500 ml Erlenmeyer flask. One flask was supplemented with 250 μl of a 500 mM dodecanoic acid stock solution (in DMSO) and the other flask with 250 μl of a 500 mM tetradecanoic acid stock solution (in DMSO) to give in each case a final concentration of 10 mM of the fatty acid. The flasks were incubated at 25° C. and 180 rpm for 12 h. Samples (800 μl) were withdrawn after 12 h and 136 μl of 5 M HCl added. These samples were stored for 5-6 h at room temperature to convert hydroxy fatty acids to the lactone. These were then extracted with ethyl acetate (2×800 μl).

[2] = Biotransformation of tetradecanoic acid to δ-dodecalactone by CYP505An expressed in Pichia pastoris; assay type: cell-based; settings: 10 mM fatty acid, 12 h, acidified; via β-oxidation
Procedure: as §1

[3] = Biotransformation of hexadecanoic acid using CFE of E. coli, Tris-HCl buffer; assay type: biochemical
Procedure: (§2) Expression of genes in E. coli was performed by using ZYP-5052 auto-induction medium (Table 1) with in the case of the CYP 1 mM 5-aminolevulinic acid and 0.05 mM FeCl3 added. The CYP505E3 culture was cultivated using baffled flasks and incubated at 20° C. and 180 rpm for 24 h, while the GDH, and HLADH expressing cultures were all cultivated at 25° C. and 200 rpm for 24 h. Cultures were harvested through centrifugation (6 000×g, 10 min) and 1 g (wet weight) resuspended in 2 ml, 5 ml or 10 ml Tris-HCl, Phosphate or MOPS buffer, as indicated, (pH 8, 200 mM) containing 100 mM of glucose and glycerol. CFEs were obtained by a single passage of the suspended cells through a One Shot Cell Disrupter (Constant Systems) at 207 MPa. The soluble fraction was separated from unbroken cells by centrifugation (20 000×g, 20 min).
(§3) The biotransformation reaction mixture (BRM) consisted of CYP and GDH CFE suspensions prepared from cells in Tris-HCl buffers (1 g wet weight in 2 ml buffer) mixed in a 1:1 ratio with 0.1 mM NADPH added. Dodecanoic acid, tetradecanoic acid, hexadecanoic acid, 1-tetradecanol and 1-hexadecanol (20 μl of a 255 mM stock solution in DMSO) were added to 40 ml amber glass vials containing 1 ml BRM to give final substrate concentrations of 5 mmol·LBRM^−1. These vials were placed on an orbital shaker at 20° C., 200 rpm, oscillation amplitude 26 mm. Vials were removed after 24 h for extraction. Biotransformations were stopped by adding 170 ul of 0.5M HCl, extracted with 2×500 μl EtOAc and subjected to GC-MS analysis. A sample of δ-dodecalactone in ethyl acetate (0.1 mM) was also methylated with TMSH and subjected to GC-MS analysis.

[4] = Biotransformation of 1-tetradecanol using CFE of E. coli, Tris-HCl buffer; assay type: biochemical; settings: C14 alcohol; CYP505A1 only tested in CFEs of E. coli
Procedure: as §2
as §3, with “Vials were removed after 24 h for extraction. Biotransformations were stopped by adding 170 ul of 0.5M HCl, extracted with 2×500 μl EtOAc and subjected to GC-MS analysis. A sample of δ-dodecalactone in ethyl acetate (0.1 mM) was also methylated with TMSH and subjected to GC-MS analysis.” left out

[5] = Biotransformation of tetradecanoic acid using CFE of E. coli, Tris-HCl buffer; assay type: biochemical
Procedure: as §2, §3

[6] = Biotransformation of dodecanoic acid using CFE of E. coli, Tris-HCl buffer; assay type: biochemical; settings: C12 fatty acid; CYP505A1 only tested in CFEs of E. coli
Procedure: as §2, §3

[7] = C16 fatty acid, GC-MS peak height
[8] = C14 fatty acid, CYP505A1 only tested in CFEs of E. coli

| Molecule | δ-dodecalactone production from dodecanoic acid [1] | δ-dodecalactone production from tetradecanoic acid [2] | products identified from hexadecanoic acid (GC-MS, methylated samples) ([3]; 5 mmol/L substrate, Tris-HCl, 24 h) | other hydroxylase activities (in brackets) C16FA [3, 7] | ω-7 hydroxylase activity C16FA [3, 7] | ω-7 hydroxylase activity C14o [4] | products identified from tetradecanoic acid (GC-MS, methylated samples) ([5]; 5 mmol/L substrate, CFE of E. coli, Tris-HCl, 24 h) | other hydroxylase activities (in brackets) C14FA [5, 8] | ω-7 hydroxylase activity C14FA [5, 8] | other hydroxylase activities (in brackets) C12FA [6] | ω-7 hydroxylase activity C12FA [6] |
| --- | --- | --- | --- | --- | --- | --- | --- | --- | --- | --- | --- |
| CYP505An: CYP505 cytochrome P450 monooxygenase from Aspergillus niger, SEQ ID No 5 (protein, Aspergillus niger) MKDAERIPGPKPLPVVGNLLDIDPEHGLQSIIAFADKYGPLFQITINGEKQIFATSQALVDELCDESRFHKAVVTGLEVLRLLAHDGLFTAYHGERGWGIAHRILVPAFGPLRIRNMLDDMSDVAQQLCLKWARQGGSTSINITEDFTRLTLDTIALCTMGFRLNSFYNNETMHPFVQSMLYVLKEADVQANLPGIANSIRVSAQRRMHKNIEAMRTMARGIIQERRKNKNPVDDILNTLLNGRDPVTGEGMSDDSIIDNVITFLIAGHETTSGLLSFTFYFLIQHPHILKKAQEEVDETVGLAQISAQHLAELPYIDAILKESLRLMPTAPGFAVTPKKTEVLGGKWMINAGQPVNVLLPACLRDQSVFGPDADEFHPERMLAENFSKLPPNSWKPFGNGERGCIGRAFAWQEAQLVVAMILQTFDLVPDDPSYQLRIKETLTIKPDGFRIRALLRRGQTATGLSRRSMLVARDGSSGESSNHLAEARGDHAPARGQPVSFFYGSNSGTCKALAHQLASNMMSRGYTTQKLAPLDNAVGNLPRDQPVIILTTTYDGQPTDDAKKFVAWLETGNVPSLQGISYAVFGCGHHDWTQTFYRIPILIDDLMHKAGATRLAPRGAANAAVSDLFSDLEAWEETSLLPALRENFLPSNSTDFDPLNPHQIQLSLSKPRRVDLHKGLIEAKVTAVRVLTSPDTPEKRHLEFCFQGDTSLRPGDHLNILPVNPPSTVSRVLAQFNLAPDYNITVNSFNTLGLPQATPVSASELFSSYVELCQPATRNNLKALIAATQSDPDKQELNRLYDSYEFIVRDKRVSVLDLLEQFPSISLPIAAFISMLPALRVRTYSLSMAPSFKPSHSSLTFSVINEPAWRGSGQHLGVASNYLASLTSGSIFYFSPRPAKESFHLPKDPSNTPIIMICAGSGLAPFLSFIQDRMVLKQQYKPLAKAFLFFGCRGRSLDDLYHEELSEFEAAGVVEIRRAYSKTPDFDIAKGCRYVQHRLVTEGQAILSLWSQNATIYVCGSTNMAKGVEAVLQNMLGPLPKERYVTEIF | δ-dodecalactone was produced | δ-dodecalactone was produced |  |  |  |  |  |  |  |  |  |
| CYP505A1: known sub-terminal fatty acid hydroxylase of medium chain fatty acids from Fusarium oxysporum, Seq ID No 8 (protein, listed as Fusarium oxysporum) MAESVPIPEPPGYPLIGNLGEFTSNPLSDLNRLADTYGPIFRLRLGAKAPIFVSSNSLINEVCDEKRFKKTLKSVLSQVREGVHDGLFTAFEDEPNWGKAHRILVPAFGPLSIRGMFPEMHDIATQLCMKFARHGPRTPIDTSDNFTRLALDTLALCAMDFRFYSYYKEELHPFIEAMGDFLTESGNRNRRPPFAPNFLYRAANEKFYGDIALMKSVADEVVAARKASPSDRKDLLAAMLNGVDPQTGEKLSDENITNQLITFLIAGHETTSGTLSFAMYQLLKNPEAYSKVQKEVDEVVGRGPVLVEHLTKLPYISAVLRETLRLNSPITAFGLEAIDDTFLGGKYLVKKGEIVTALLSRGHVDPVVYGNDADKFIPERMLDDEFARLNKEYPNCWKPFGNGKRACIGRPFAWQESLLAMVVLFQNFNFTMTDPNYALEIKQTLTIKPDHFYINATLRHGMTPTELEHVLAGNGATSSSTHNIKAAANLDAKAGSGKPMAIFYGSNSGTCEALANRLASDAPSHGFSATTVGPLDQAKQNLPEDRPVVIVTASYEGQPPSNAAHFIKWMEDLDGNDMEKVSYAVFACGHHDWVETFHRIPKLVDSTLEKRGGTRLVPMGSADAATSDMFSDFEAWEDIVLWPGLKEKYKISDEESGGQKGLLVEVSTPRKTSLRQDVEEALVVAEKTLTKSGPAKKHIEIQLPSAMTYKAGDYLAILPLNPKSTVARVFRRFSLAWDSFLKIQSEGPTTLPTNVAISAFDVFSAYVELSQPATKRNILALAEATEDKDTIQELERLAGDAYQAEISPKRVSVLDLLEKFPAVALPISSYLAMLPPMRVRQYSISSSPFADPSKLTLTYSLLDAPSLSGQGRHVGVATNFLSHLTAGDKLHVSVRASSEAFHLPSDAEKTPIICVAAGTGLAPLRGFIQERAAMLAAGRTLAPALLFFGCRNPEIDDLYAEEFERWEKMGAVDVRRAYSRATDKSEGCKYVQDRVYHDRADVFKVWDQGAKVFICGSREIGKAVEDVCVRLAIEKAQQNGRDVTEEMARAWFERSRNERFATDVFD |  |  | only sub-terminally hydroxylated products | (++) (++ 0.1 million < RA < 1 million) | − | − | only sub-terminally hydroxylated products | (++) (++ 0.1 million < RA < 1 million) | − | (+++) (+++ 1 million < RA < 10 million) | − |
